According to US20110294217, “DNA NICKING ENZYME FROM A HOMING ENDONUCLEASE THAT STIMULATES SITE-SPECIFIC GENE CONVERSION” (FRED HUTCHINSON CANCER RESEARCH CENTER, published 2011):

T1: I-AniI Y2 K227M nickase (in cell) (Aspergillus nidulans, UniProt P03880 P03880:235-488, F13Y,F80K,S111Y,L232K,K227M)
T1 sequence: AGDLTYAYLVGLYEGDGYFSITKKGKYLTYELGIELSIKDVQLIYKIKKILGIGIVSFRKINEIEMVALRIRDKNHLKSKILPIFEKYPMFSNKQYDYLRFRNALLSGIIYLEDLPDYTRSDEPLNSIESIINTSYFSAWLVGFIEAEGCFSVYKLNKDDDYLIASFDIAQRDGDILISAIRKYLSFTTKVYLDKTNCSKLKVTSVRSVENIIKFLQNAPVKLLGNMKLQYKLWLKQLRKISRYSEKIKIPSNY

T2: I-AniI HyperK (in cell) (Aspergillus nidulans, UniProt P03880 P03880:235-488, F80K,L232K)
T2 sequence: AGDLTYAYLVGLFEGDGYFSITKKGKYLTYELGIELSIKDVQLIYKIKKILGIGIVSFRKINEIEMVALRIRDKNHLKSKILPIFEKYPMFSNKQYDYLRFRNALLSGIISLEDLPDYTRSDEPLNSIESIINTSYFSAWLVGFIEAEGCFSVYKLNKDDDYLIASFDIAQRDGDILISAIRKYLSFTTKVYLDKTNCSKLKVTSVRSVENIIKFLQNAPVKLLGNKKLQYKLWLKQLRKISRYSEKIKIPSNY

T3: I-AniI Y2 (in cell) (Aspergillus nidulans, UniProt P03880 P03880:235-488, F13Y,F80K,S111Y,L232K)
T3 sequence: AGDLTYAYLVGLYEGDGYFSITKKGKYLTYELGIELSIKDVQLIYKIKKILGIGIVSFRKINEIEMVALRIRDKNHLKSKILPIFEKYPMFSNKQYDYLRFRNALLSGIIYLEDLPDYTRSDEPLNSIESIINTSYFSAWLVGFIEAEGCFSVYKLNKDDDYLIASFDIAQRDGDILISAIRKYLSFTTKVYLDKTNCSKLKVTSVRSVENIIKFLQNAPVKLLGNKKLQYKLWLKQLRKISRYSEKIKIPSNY

T4: I-AniI K227M/Q171K (catalytically inactive) (Aspergillus nidulans, UniProt P03880 P03880:235-488, F80K,L233K,Q171K,K227M)
T4 sequence: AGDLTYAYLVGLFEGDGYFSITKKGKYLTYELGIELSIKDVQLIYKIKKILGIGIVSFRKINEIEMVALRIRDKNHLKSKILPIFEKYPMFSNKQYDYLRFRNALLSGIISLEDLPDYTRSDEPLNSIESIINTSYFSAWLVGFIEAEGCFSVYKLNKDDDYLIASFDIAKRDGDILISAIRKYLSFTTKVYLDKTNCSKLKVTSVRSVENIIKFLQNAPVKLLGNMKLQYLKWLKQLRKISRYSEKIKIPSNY

T5: I-AniI K227M nickase (Aspergillus nidulans, UniProt P03880 P03880:235-488, F80K,L233K,K227M)
T5 sequence: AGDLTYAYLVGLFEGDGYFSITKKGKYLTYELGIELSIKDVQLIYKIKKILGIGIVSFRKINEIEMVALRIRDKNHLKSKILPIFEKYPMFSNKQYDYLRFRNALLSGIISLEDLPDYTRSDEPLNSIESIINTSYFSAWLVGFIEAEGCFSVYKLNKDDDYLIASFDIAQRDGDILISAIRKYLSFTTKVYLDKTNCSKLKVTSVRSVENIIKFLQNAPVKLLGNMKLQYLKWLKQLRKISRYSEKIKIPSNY


Assays:
[1] = target: T1, I-AniI Y2 K227M nickase (in cell); experiment: cell_activity; cis recombination, 293T; reporter alone 5.10; conditions: tags: N-terminal HA and NLS
Protocol: (§1) Cells were analyzed on an FACScan® flow cytometer (Becton Dickinson); 75,000 events were gated for linear side and forward scatter to identify cells; and GFP fluorescence was analyzed.
(§2) Reporter assays were developed to measure either intramolecular recombination in cis, or recombination of a chromosomal target mediated by a donor in trans. The assay for recombination in cis used a reporter, DR-GFPAni, based on the direct repeat recombination reporter plasmid (DR)-GFP (Pierce et al., Genes Dev. 13:2633-2638, 1999), which was designed to score only gene conversion, and not repair mediated by NHEJ or single-strand annealing. […] Transfection efficiency was consistently greater than 90%. […] The fraction of GFP⁺ cells ranged from a background of about 3 to about 5% for cells transfected with the reporter alone, up to about 50% in cells transfected simultaneously with the reporter plasmid and an I-AniI Y2 cleavase expression plasmid (FIG. 8C and FIG. 10). […] Expression of the I-AniI nickase stimulated recombination 2.5-fold (FIG. 8C), or approximately one-fourth as efficiently as the I-AniI cleavase.
(§3) ¹The two different series were performed as described in this example.

[2] = target: T2, I-AniI HyperK (in cell); experiment: as above; conditions: tags: N-terminal HA and NLS
Protocol: as §1, §2, §3

[3] = target: T3, I-AniI Y2 (in cell); experiment: as above; conditions: tags: N-terminal HA and NLS
Protocol: as §1, §2, §3

[4] = target: T4, I-AniI K227M/Q171K (catalytically …); experiment: ITC; catalytically inactive
Protocol: (§4) Isothermal titration calorimetry (ITC) was used to determine the dissociation constants of native and nicking I-AniI binding to the optimal LIB4 DNA target site (FIG. 4E). Calorimetric experiments were conducted as described previously (Eastberg et al., Biochemistry 46:7215-25, 2007). […] This difference is primarily due to a +5.8 kcal/mol increase in enthalpy change upon nickase binding, implying that the nicking variant has lost contacts to the DNA target—presumably because a hydrogen bond formed by the K227 side chain to the DNA phosphate backbone (Scalley-Kim et al., J. Mol. Biol. 372:1305-1319, 2007) is eliminated.

[5] = target: T5, I-AniI K227M nickase; experiment: ITC; +1.4 kcal/mol in binding free energy vs wild type
Protocol: as §4

| Binder | activity [1] [% GFP+] | activity [2] [% GFP+] | activity [3] [% GFP+] | Kd [4] [nM] | Kd [5] [nM] |
| --- | --- | --- | --- | --- | --- |
| I-AniI native target site (19 bp) (dsDNA) DNA 1: TTACAGAGAAACCTCCTCA DNA 2: TGAGGAGGTTTCTCTGTAA | 12.4 | 11 | 47.5 |  |  |
| I-AniI Lib4 target site (dsDNA) DNA 1: TGAGGAGGTTACTCTGTTA DNA 2: TAACAGAGTAACCTCCTCA |  |  |  | 62 | 71 |
